Results: the DeepSol protein solubility set

Test: soluble on expression in E. coli; label from the status in PepcDB or PDB records

Row | Sequence | soluble on expression in E. coli
1 | MSREANPFKKMPTILMPDELMAKALRRGEKVANEMRQKELPWLLKARFVEEHKVRTIASVVADNLQKVIDKTPPVRKLPKFYQEMVEVLVGIDDFKKSMGAFKWASELVRKLGNEYARKIRKARTPQQAGKLRKEFVGRVKSILEQIHPEMAFVAVAREKLKDLPTFKDLPTVVIAGYPNVGKSTLLKKLTGADVEINSYPFTTKGINVGYIGEIQMVDTPGLLDRPLYERNDIELQAILALNYLANLILFIIDASEFCGYTIEEQINLLKEIKDLFKAPIVVAINKIDLVDEERVKEIEEKLKEVGIEEILKISADKDIGLDELKERLKKIAIKEFLKDKDAENKELECLEHHHHHH | soluble
2 | MSVVEEATDDALYPIAVLIDELRNEDVTLRLNSIRKLSTIALALGVERTRNELIQFLTDTIYDEDEVLLVLAEQLGNFTPLVGGPDHVHCLLLPLENLATVEETVVRDKAVESLRKIADKHSSASLEEHFVPMLRRLATGDWFTSRTSACGLFSVVYPRVSPAIKSELKSMFRTLCRDDTPMVRRAAAAKLGEFAKVFEKTAVIEGLHSSLTDLHVDEQDSVRLLTVESAIAFGTLLDKANKKKLIEPILIELFDDKSWRVRYMVAEKLIEIQNVLGEDMDTTHLVNMYTNLLKDPEGEVRCAATQRLQEFALNLPEDKRQNIICNSLLNVAKELVTDGNQLVKSELAGVIMGLAPLIGKEQTVSELLPIYMQLLNDQTPEVRLNIISSLDKVNEVIGAAQLSTSLLPAIVGLAEDGKWRVRLAIVQFMPLLASQLGQEFFDEKLLPLCLNWLTDHVFSIREASTLIMKELTQKFGGQWASTNIVPKMQKLQKDTNYLQRMTCLFCLNTLSEAMTQEQILKEIMPIVKDLVEDDVPNVRFNAAKSLKRIGKNLTPSTLTSEVKPLLEKLGKDSDFDVRYFSEEAKNSLGL | not soluble
3 | MGSHHHHHHSSGLVPRGSHMTIGIDKISFFVPPYYIDMTALAEARNVDPGKFHIGIGQDQMAVNPISQDIVTFAANAAEAILTKEDKEAIDMVIVGTESSIDESKAAAVVLHRLMGIQPFARSFEIKEACYGATAGLQLAKNHVALHPDKKVLVVAADIAKYGLNSGGEPTQGAGAVAMLVASEPRILALKEDNVMLTQDIYDFWRPTGHPYPMVDGPLSNETYIQSFAQVWDEHKKRTGLDFADYDALAFHIPYTKMGKKALLAKISDQTEAEQERILARYEESIIYSRRVGNLYTGSLYLGLISLLENATTLTAGNQIGLFSYGSGAVAEFFTGELVAGYQNHLQKETHLALLDNRTELSIAEYEAMFAETLDTDIDQTLEDELKYSISAINNTVRSYRN | soluble
4 | MGHHHHHHGGHMSLIGFLTDWGLKSHYVGVAKAVIKRINPSAEIIDITHEVEPFNVRKASHVLYRASLDFPPSTVFLVVVDYGVGTSRKAIVMKTKNDQYFVAPDNGVLTVVAEEYGVAEIREIENRELFYKKNPSFTFHGRDIFAPVAAHLDMGLPLERVGDRLLSYEVLKMRKPVVENEKVIGEVAIVDTFGNVSTNIPFDLFLKLSVDFDDVVRVRVGRKEFKAAVAKAFGDVDTGELLVHPDSAGFLEIAVNLGDASQVLSVKEGDEIEICREGGS | soluble
5 | SNAMKRSIEDTPIVLIGAGNLATNLAKALYRKGFRIVQVYSRTEESARELAQKVEAEYTTDLAEVNPYAKLYIVSLKDSAFAELLQGIVEGKREEALMVHTAGSIPMNVWEGHVPHYGVFYPMQTFSKQREVDFKEIPFFIEASSTEDAAFLKAIASTLSNRVYDADSEQRKSLHLAAVFTCNFTNHMYALAAELLKKYNLPFDVMLPLIDETARKVHELEPKTAQTGPAIRYDENVIGNHLRMLADDPAMQRLYELLSRSIHERQ | soluble
6 | MNYATTPTAFVESKLNSMPGDALGYLRRLDQRWQALCQGDLPPIAEVAQKVNTNLGEADFDAVICGGTLGILLAASLQIRGWQVVVIERGKLQGRAQEWNISRQELQTFVELELLTSEELETAIASEYNPGRIAFHGGQEFWIKNVLNVGIDPIYLLEKLKQKFLQAGGKLLEHSAFQKAIIHSDGVAISYQHDGENQVERKLTSRLLIDAMGHGSPLVNQARQGEIPDGVCLVVGSCAQGYSDNETGDLIATTTGITNHCQYFWEAFPARDGRTTYLFTYVDVHPERISLEFFFQEYFRLLPEYQKINLDQLQWQRFLSGFFPAYKSSPLHFSWGRVLAVGDSAGSQSPVSFGGFGAMVRHLKRLTNAIGEALAGDYLAAEDLALLQPYQPNIGVTWLFQQTMGVKVGQTADPEQINRLMNAVFAVMDRQGQEVMEPFLQDVIQWSGLTQTLPRVNPLIVLPLLPQIGLPALMEWLGHYANLAGYSLTYPLAKNLLFTNPSFEQKRRLEAWYYGSGYDFHH | not soluble
7 | MKLNLITVSLATLVAAGAFPAHAGPQAHVVCGYHHTLGDDAIMMFGKANQAMWHDFFGNTHTDAVSTYQTLRAQPDTTCDNKADSSAYWAPSMKLPDGEIVNPAYQKTYYQSTNVAQYPLHPFPAGLELLAGDHHGTGPSSAITFLCANGKGYTNKVGEICGLRKAGDAVQFNIGIAFPNCWDGVNLKPTHSHNNAIYADHGKCSADYPVKIPTVNMNIAWVLPQISSLDTSKVELSMDPVMHGETREERWGSLYTAHADFMNGWTEDGAQFMTDLCMNQGLDCGTTVPYAYSKAEENTWVSSEDDKPHASVDTLYVQDDWTNGGRTQHPETLTLVKFKIPPLPANMDASLFKYRIRLFGGKTEANGADQIFFYPTSSDWHVSTVSWNNKPAINYRSDAVLYLDHSHEYRMVDVDKAVRKALAEGKTEISWYIGGDRQGNHYDFTPADSKQSLVLMLTGFKKTPELLEHHHHHH | not soluble
8 | MSITPHRLPVAPVIVREAYLSLLRKGWRPGDRDLKTPRNVKIETGIIEKAEGSALVKLGKTQVIAGVKAGVGAPFKDTPNQGVLTVHAEFVPLASPVFEPGPPDENAIELARVVDRSLREVGAVDLESLVIRPGEKVWVLWVDLYIIDHDGNLFDASMLATMAVLLTARLPRYEESETGEIIISKEGEGEELKVKTRVVTVTTAKIDRYIVVDPNIEEEAVSDVRLVTAVDENGRIVGLQKTGMGSLTEADIETMIGYSLEASKVYFKALEEAIKP | soluble
9 | MSKTITWTAALLGSMALAGCSGPKTLYQWEGYQAQVHEYFKGESKEAQAQALEADLEKIRAKNGAVPPGYHAQLGLLYSSIGKDDQMVREFETEKALFPESATYMDFLLNNARGGAR | not soluble
10 | MHLSPESLEAFVQAVSLGSFSAAARKLGKSQSTVSEAIARLEIDLGLELFDRSGRQPQLTEAGRTLLGRVEEVLGASDRLRRVAALLAGGSEPRVTLALSDTYHSARYEARLAELDERYPELEFECLIAEDQDVIAQVSRGRATLGLLAAQPHYPPELGVAAVAERAEFGLFAAVDHPLAGLERVSERDLSEWRLLRLNTYSETGAAINDGLPSSGGRCWSAPNYLLLLEMATHGFGWAELPRWLVSGYANGRLKELPVSGWPRSQAVDVVWSRQRPLGPAANWLLDRLLDRDLPI | not soluble
11 | MGSDKIHHHHHHMNQIINDNYREFLKKLRERHLKKRKVKDKNKPIAVWMQDDIYRDFSIGKSLTIILRTEGCYYAKEGGCLMCSYLMDSSPEKITAENIINQFNYAIEKYKEKIKDLKDFSVKIFTSGSFLDDREVPKEARNYIFKKLSEFDNLKEVAIESRPEFIDEDKLNEIRKYLDVNVEIGVGIESFNEEIREKAINKGITNEQIIRAIELAKNYNIGIKAYLLIKPLFITEKEAIYDSISSANKCIELGCSRISFCPATVHKGSVMEFFFNKNQYRPPFLWSIIEILKEVKKSNPKALIMCDTSGVGSERGAHNLYNCKCNKLIKERLERFTLTQDINVLNVECECKNIWNAYIEVENKNIVPLGDERKLLL | not soluble
12 | PDFTPQKFKEKTAEQLRVLQASFLNSSVLTDEELNRLRAQTKLTRREIDAWFTEKKKSKALKEEKMEIDESNAGSS | soluble
13 | MAAESQLKRVIETLRRLGIEEVLKLERRDPQYRAVCNVVKRHGETVGSRLAMLNALISYRLTGKGEEHWEYFGKYFSQLEVIDLCRDFLKYIETSPFLKIGVEARKKRALKACDYVPNLEDLGLTLRQLSHIVGARREQKTLVFTIKILNYAYMCSRGVNRVLPFDIPIPVDYRVARLTWCAGLIDFPPEEALRRYEAVQKIWDAVARETGIPPLHLDTLLWLAGRAVLYGENLHGVPKEVIALFQWRGGCRPPSE | soluble
